What all share (assay): filter binding
Data set [1] relates to 30S ribosomal subunit (Escherichia coli MRE600). Conditions: Filter binding: 50 nM 32P-RNA in TAKM5 buffer (composition not given), 15 min at 37 C, nitrocellulose filtration, fluorescence titrations: pyrene, ex 341 nm ….
Data set [2] has as its system 70S ribosome (Escherichia coli MRE600). Conditions: Filter binding: 50 nM 32P-RNA in TAKM5 buffer (composition not given), 15 min at 37 C, nitrocellulose filtration, fluorescence titrations: pyrene, ex 341 nm ….
The subject of data set [3] is 40S ribosomal subunit ((HeLa cells)). Conditions: Filter binding: 50 nM 32P-RNA in TAKM5 buffer (composition not given), 15 min at 37 C, nitrocellulose filtration; fluorescence titrations: pyrene, ex 341 nm ….

By Kd is commonly meant the concentration at which binding is half-saturated. Turning to “GCGCGGAUGCUCAGUCGGUAGAGCAGGGGAUUGAAAAUCCCCGUGUCCUUGGUUCGAUUCCGAGUCCGCGCACCA [tRNAPhe]”, the Kd in data set [1] (only 10% bound) was determined as 35 nM.
As to “GAGCGGUUUCUGGAAUACUAUAUGUAAGUAUAGUGUUCUGGAGGCAUCAUUCUAUGGUUACCCAUCAUUAGAGGAAAUUUCCAAUAAACUCUGGUGUAAGGCUUAGAGUGAUGGUCGAGGUGCCCUAUUUAGGGUGAGGAGCCUCGGUGGCAGCCCCACCAAAUCCUCUAUUGGAUAGGAACAGCUGUACUGGGCAGUUACAGCAGUCGUAUGGUAACACAUGCGGCGUUCCGAAAUACCAUGCCUGGCGAUUCACAACAAGAA [IAPV IGR IRES WT]”, the Kd in data set [2] worked out at 50 nM; in data set [1], 93 nM.
As for “GAGCGGUUUCUGGAAUACUAUAUGUAAGUAUAGUGUUCUGGAGGCAUCAUUCUAUGGUUACCCAUCAUUAGAGGAAAUUUCCAAUAAACUCUGGUGUAAGGCUUAGAGUGAUGGUCGAGGUGCCCUAUUUAGGGUGAGGAGCCUCGGUGGCAGCCCCACCAAAUCCUCUUAACCAUAGGAACAGCUGUACUGGGCAGUUACAGCAGUCGUAUGGUAACACAUGCGGCGUUCCGAAAUACCAUGCCUGGCGAUUCACAACAAGAA [IAPV IGR IRES PK2_K/O]”, the Kd in data set [2] is 59 nM; in data set [1], 81 nM.
In the case of “AAAGCAAAAAUGUGAUCUUGCUUGUAAAUACAAUUUUGAGAGGUUAAUAAAUUACAAGUAGUGCUAUUUUUGUAUUUAGGUUAGCUAUUUAGCUUUACGUUCCAGGAUGCCUAGUGGCAGCCCCACAAUAUCCAGGAAGCGGAGAGUGCGGUUUUUCAGAUUAGGUAGUCGAAAAACCUAAGAAAUUUACCUGCUACAUUUCAAGAUAAA [CrPV IGR IRES PK2_K/O]”, the results for the Kd in data set [2] and in data set [1] were 100 nM and 74 nM, respectively.
For “GAGCGGUUUCUGGAAUACUAUAUGUAAGUAUAGUGUUCUGGAGGCAUCAUUCUAUGGUUACCCAUCAUUAGAGGAAAUUUCCAAUAAACUCUGGUGUAAGGCUUAGAGUGAUGGUCGAGGUGCCCUAUUUAGGGUGAGGAGCCUCGGUGGCAGCCCCUGGAAAUCCUCUAUUGGAUAGGAACAGCUGUACUGGGCAGUUACAGCAGUCGUAUGGUAACACAUGCGGCGUUCCGAAAUACCAUGGGUGGCGAUUCACAACAAGAA [IAPV IGR IRES PK1+3_K/O]”, in that order: 65 nM and 80 nM.
On to “GAGCGGUUUCUGGAAUACUAUAUGUAAGUAUAGUGUUCUGGAGGCAUCAUUCUAUGGUUACCCAUCAUUAGAGGAAAUUUCCAAUAAACUCUGGUGUAAGGCUUAGAGUGAUGGUCGAGGUGCCCUAUUUAGGGUGAGGAGCCUCGGUGGCAGCCCCUGGAAAUCCUCUUAACCAUAGGAACAGCUGUACUGGGCAGUUACAGCAGUCGUAUGGUAACACAUGCGGCGUUCCGAAAUACCAUGGGUGGCGAUUCACAACAAGAA [IAPV IGR IRES PK1+2+3_K/O]”, for which the values for the Kd in data set [2] and in data set [1] were 72 nM and 73 nM, respectively.
Consider “GGAUACGCACAAUAAGGCUAUUGUACGUAUGCAAAUUAAUAAUAAAGGAGAGUAGCAAUGUCAUUCGAAUUACCUGCACUACCAUAUGCUAAAGAUGCUCUGGCACCGCACAUUUCUGCGG [sodB 5' UTR RNA]”, for which the Kd in data set [2] (56% bound) stood at 47 nM; in data set [1] (41% bound), 13 nM.
On to “GGUACGAGUAGAAUACUGCCGCUUAACGUCGCGUAAAUUGUUUAACACUUUGCGUAACGUACACUGGGAUCGCUGAAUUAGAGAUCGGCGUCCUUUCAUUCUAUAUACUUUGGAGUUUUAAAAUGUCUCAAGUACUGAAGCAACAGCUAAAAUCGUUUCUGAGUUUGGUCGUGACGCAAACGACACC [rpsO 5' UTR RNA]”, for which the Kd was 94 nM in data set [2] (44% bound) and 10 nM in data set [1] (39% bound).
“AAAGCAAAAAUGUGAUCUUGCUUGUAAAUACAAUUUUGAGAGGUUAAUAAAUUACAAGUAGUGCUAUUUUUGUAUUUAGGUUAGCUAUUUAGCUUUACGUUCCAGGAUGCCUAGUGGCAGCCCGUGAAUAUCCAGGAAGCCCUCUCUGCGGUUUUUCAGAUUAGGUAGUCGAAAAACCUAAGAAAUUUACCUGCUACAUUUCAAGAUAAA [CrPV IGR IRES PK3_K/O]”: the Kd in data set [2] was 90 nM; in data set [1], 48 nM.
Turning to “GAGCGGUUUCUGGAAUACUAUAUGUAAGUAUAGUGUUCUGGAGGCAUCAUUCUAUGGUUACCCAUCAUUAGAGGAAAUUUCCAAUAAACUCUGGUGUAAGGCUUAGAGUGAUGGUCGAGGUGCCCUAUUUAGGGUGAGGAGCCUCGGUGGCAGCCCCUGGAAAUCCUCUAUUGGAUAGGAACAGCUGUACUGGGCAGUUACAGCAGUCGUAUGGUAACACAUGCGGCGUUCCGAAAUACCAUGCCUGGCGAUUCACAACAAGAA [IAPV IGR IRES PK3_K/O]”, the Kd in data set [2] came to 59 nM; in data set [1], 103 nM.
For the sequence “AAAGCAAAAAUGUGAUCUUGCUUGUAAAUACAAUUUUGAGAGGUUAAUAAAUUACAAGUAGUGCUAUUUUUGUAUUUAGGUUAGCUAUUUAGCUUUACGUUCCAGGAUGCCUAGUGGCAGCCCCACAAUAUCCAGGAAGCCCUCUCUGCGGUUUUUCAGAUUAGGUAGUCGAAAAACCUAAGAAAUUUAGGUGCUACAUUUCAAGAUAAA [CrPV IGR IRES PK1_K/O]”, the Kd in data set [2] was found to be 92 nM; in data set [3], 4 nM; in data set [1], 55 nM.
For the sequence “AAAGCAAAAAUGUGAUCUUGCUUGUAAAUACAAUUUUGAGAGGUUAAUAAAUUACAAGUAGUGCUAUUUUUGUAUUUAGGUUAGCUAUUUAGCUUUACGUUCCAGGAUGCCUAGUGGCAGCCGGUGAAUAUCCAGGAAGCGGAGAGUGCGGUUUUUCAGAUUAGGUAGUCGAAAAACCUAAGAAAUUUAGGUGCUACAUUUCAAGAUAAA [CrPV IGR IRES PK1+2+3_K/O]”, the values for the Kd in data set [2] and in data set [1] were 79 nM and 48 nM, respectively.
In the case of “AAAGCAAAAAUGUGAUCUUGCUUGUAAAUACAAUUUUGAGAGGUUAAUAAAUUACAAGUAGUGCUAUUUUUGUAUUUAGGUUAGCUAUUUAGCUUUACGUUCCAGGAUGCCUAGUGGCAGCCCCACAAUAUCCAGGAAGCCCUCUCUGCGGUUUUUCAGAUUAGGUAGUCGAAAAACCUAAGAAAUUUACCUGCUACAUUUCAAGAUAAA [CrPV IGR IRES WT]”, the equilibrium dissociation constant (Kd) in data set [2] amounted to 69 nM; in data set [3] it was 14 nM; in data set [1], 110 nM.
Consider “GAGCGGUUUCUGGAAUACUAUAUGUAAGUAUAGUGUUCUGGAGGCAUCAUUCUAUGGUUACCCAUCAUUAGAGGAAAUUUCCAAUAAACUCUGGUGUAAGGCUUAGAGUGAUGGUCGAGGUGCCCUAUUUAGGGUGAGGAGCCUCGGUGGCAGCCCCACCAAAUCCUCUAUUGGAUAGGAACAGCUGUACUGGGCAGUUACAGCAGUCGUAUGGUAACACAUGCGGCGUUCCGAAAUACCAUGGGUGGCGAUUCACAACAAGAA [IAPV IGR IRES PK1_K/O]”, for which the Kd in data set [2] worked out at 67 nM; in data set [1], 87 nM.
As for “AAAGCAAAAAUGUGAUCUUGCUUGUAAAUACAAUUUUGAGAGGUUAAUAAAUUACAAGUAGUGCUAUUUUUGUAUUUAGGUUAGCUAUUUAGCUUUACGUUCCAGGAUGCCUAGUGGCAGCCGGUGAAUAUCCAGGAAGCCCUCUCUGCGGUUUUUCAGAUUAGGUAGUCGAAAAACCUAAGAAAUUUAGGUGCUACAUUUCAAGAUAAA [CrPV IGR IRES PK1+3_K/O]”, the Kd in data set [2] was 78 nM; in data set [1] it was 52 nM.

These data come from article PMC9458429.
